Patent US20110129412A1

Legend:
[1] = target: human CD20 (human) (UniProt P11836); assay: cell-based or functional assay
[2] = target: human CD20 (human) (UniProt P11836); assay: FACS titration on SB cells expressing CD20, 3 h at 4 C, nonlinear fit of geometric mean fluorescence

human CD20 (human), sequence (P11836 whole entry): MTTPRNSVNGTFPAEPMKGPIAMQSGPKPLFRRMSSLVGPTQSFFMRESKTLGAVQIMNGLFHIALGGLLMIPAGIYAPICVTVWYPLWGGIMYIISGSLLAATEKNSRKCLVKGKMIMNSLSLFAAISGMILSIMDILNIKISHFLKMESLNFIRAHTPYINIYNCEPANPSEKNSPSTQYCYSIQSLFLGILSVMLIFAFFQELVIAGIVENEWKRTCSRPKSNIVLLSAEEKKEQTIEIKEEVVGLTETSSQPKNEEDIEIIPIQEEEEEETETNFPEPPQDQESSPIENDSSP

Rituxan (Rituximab), Genentech (antibody)
% Lysis Daudi 0.001 µg/ml ADCC [1]: 33%
% Lysis Daudi 1 µg/ml ADCC [1]: 95%
% Lysis Raji 0.001 µg/ml ADCC [1]: 16%
% Lysis Raji 1 µg/ml ADCC [1]: 62%
% Lysis Ramos 0.001 µg/ml ADCC [1]: 5%
% Lysis Ramos 1 µg/ml ADCC [1]: 78%
EC50 Daudi CDC [1]: 1.56 µg/mL
EC50 Raji CDC [1]: 0.31 µg/mL
EC50 Ramos Apoptosis Alamar Blue [1]: 0.222 µg/mL
EC50 Ramos Apoptosis Annexin V [1]: 2.59 µg/mL
EC50 Ramos Apoptosis Cell Titer Glo [1]: 0.576 µg/mL
EC50 Ramos Apoptosis WST-1 [1]: 0.0326 µg/mL
EC50 Ramos CDC [1]: 0.43 µg/mL
Kd [2]: 8.1 nM
